Target: CL11 (ribosomal protein L11 C-terminal domain, wild type) (Bacillus stearothermophilus, UniProt P56210 59-133)
Assay: SPR

Chain of CL11 (ribosomal protein L11 C-terminal domain, wild type) (P56210 59-133): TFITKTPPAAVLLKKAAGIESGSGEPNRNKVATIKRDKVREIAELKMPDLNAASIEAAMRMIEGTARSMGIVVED

B1: biotinylated 58rRNA (structured_RNA)
RNA: GCCAGGAUGUAGGCUUAGAAGCAGCCAUCAUUUAAAGAAAGCGUAAUAGCUCACUGGU
  Kd: 2.4 nM

— publication doi:10.1101/2021.08.01.454623
